Results as given in the nanobody polyreactivity screen of Harvey et al. (2022).

Assay: yeast display, Sf9 membrane polyspecificity reagent, FACS + sequencing; frameworks hold sequencing errors
Procedure, shortened: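 Using colony PCR, genes from sorted yeast display clones were amplified, then sequenced on MiSeq at 2 × 250 and filtered by CDR length. The clones had been stained with 10% biotinylated, detergent-solubilized Sf9 membrane reagent for 1 hour at 4 °C and sorted by FACS into low and high (top ~1%) gates on anti-HA and streptavidin fluorescence. Polyreactivity labels come from the gate of origin.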

Sequence	polyreactivity (PSR sort gate)
QVQLVESGGGLVQAGGSLRLSCAASGRIFGLYAMGWYRQAPGKEREFVAAIRLSGGSTYYADSVKGRFTISRDNAKNTVYLQMISLKPEDTAVYYCAADLSYNRGRGSRVYYWGQGTQVTVSS	high polyreactivity
QVQLVESGGGLVQAGGSLRLSCAASGRIFGLYAMGWYRQAPGKERELVAAITKRGGTTYYADSVKVRFTISRDNAKNTVYLQMKSLKPEDTAVYYCAAKRSVLRTADYDYWGQGTQVTVSS	high polyreactivity
QVQLVESGGGLVQAGGSLRLSCAASGRIFGMYTKGWYRQETGKETELVAAINTGGSTYYADSVKGRFTISRDNAKNTVYLQMNSLKPEDTAVYYCNAETGWPWIYHYDYWGQGTQVTVSS	low polyreactivity
QVQLVESGGGLVQAGGSLRLSCAASGRIFGNNAMGWYRQAPGKERELVAAIRSRGTRTYYADSVKGRFTISRDNAKNTVYLQMNSLKPEDTAVYYCATTSLTGRYDRYDYWGQGTQVTVSS	high polyreactivity
QVQLVESGGGLVQAGGSLRLSCAASGRIFGNYAMGWYRPATGKESELVAAISGGGSTYYADSVKGRFTISRDNAKNTVYLQMNSVKPEDTAVYYCAARFMWSVFGRKGGYWGQGTHVTVSS	low polyreactivity
QVQLVESGGGLVQAGGSLRLSCAASGRIFGNYAMGWYRQAPGKERELVAAISGGGSTYYADSVKGRFTISRDNAKNTVYLQMNSLKPEDTAVYYCNAKTYYPPFGYWGQGTQVTVSS	low polyreactivity
QVQLVESGGGLVQAGGSLRLSCAASGRIFGPNAMGWYRQAPGKERELVAAITGSGGSTYADSVKGRFTISRDNAKNTVYLQMNSLKREDTAVYYCAKKTWYSYYWGQGTQVTVSS	high polyreactivity
QVQLVESGGGLVQAGGSLRLSCAASGRIFGPYAMGWYRQAPGKDRELVAAISASGGRTYDADSVKGRFTISRDNAKNTVYLQMNSLKPEDTAVYYCARRYWHSGWIFDYWGQGTQVTVSS	high polyreactivity
QVQLVESGGGLVQAGGSLRLSCAASGRIFGPYAMGWYRQAPGKERELVAAITQRGGSTSYADSVKGRFTISRDNAKKTVYLQMNSLKPEDTAVYYCNVLSYGSIPRRGYYYVWGDYWGQGTQVTVSS	high polyreactivity
QVQLVESGGGLVQAGGSLRLSCAASGRIFGPYAMGWYRQAPRKERELVASISYSGGSTYYADSVKGRFTISRDNAKNTVYLQMNSLKPEDTAVYYCAKGGYWRGYNYWGQGTQVTVSS	low polyreactivity
QVQLVESGGGLVQAGGSLRLSCAASGRIFGPYTKGWYRQAPGKERQLVAAISCSGGSTYYADSVKGRFTISRDNAKNTVYLQMNSLKPEDTAVSYCKADHPFPQYEGGSSGQGTQVTVSS	low polyreactivity
QVQLVESGGGLVQAGGSLRLSCAASGRIFGPYTMGWYRQAPGKERELVAAISSTGGSTYYADSVKGRFTISRDNAKNTVYLQRNSLKPEDTAVYYCEYDYWGQGTQVTVSS	low polyreactivity
QVQLVESGGGLVQAGGSLRLSCAASGRIFGPYTMGWYRQAPGKERELVAAITGRVVSTYYADSVKGRFTISRDNAKNTVYLQMNSLKPEDTAVYYCAKASHYWSQRFGYWGQGTQVTVSS	high polyreactivity
QVQLVESGGGLVQAGGSLRLSCAASGRIFGPYVMGWYRQAPGKEREFVAAISRRTGSTYYADSVKGRFTISRDNAKNTVYLQMNSLKPEDTAVYYCAATYYFSHVVGYGYWGQGTQVTVSS	high polyreactivity
QVQLVESGGGLVQAGGSLRLSCAASGRIFGPYVMGWYRQAPGKERELVAAISTSGTSTYYADSVKGRFTISRDNAKNTVYLQMNSLKPEDTAVYYCAKRSGARHRLMDYWGQGTQVTVSS	low polyreactivity
QVQLVESGGGLVQAGGSLRLSCAASGRIFGRNAMGWYRPAPGKERELVAAITSGGSTNYADSVKGRFTISRDNAKNTVYLQMNSLKPEDAAVYYCAARRVIYVRLDYDYWGQGTQVTVSS	high polyreactivity
QVQLVESGGGLVQAGGSLRLSCAASGRIFGRNAMGWYRQAPGKEREFVAAISRSGASTYYADSVKGRFTISRDNAKNTVYLQMNSLKPEDTAVYYCARTTRQSSAYTYSDEYDYWGQGTQVTVSS	high polyreactivity
QVQLVESGGGLVQAGGSLRLSCAASGRIFGRNTMGWYRQAPGKERELVAAITGTGTTYADSVKGRFTISRDNAKNTVYLQMNSLKPEDTAVYYCAARRSVYTWVSRYNYWGQGTQVTVSS	high polyreactivity
QVQLVESGGGLVQAGGSLRLSCAASGRIFGRNVMGWYRQAPGKERELVAAISWIGGSTSYADSVKGRFTISRDNAKNTVYLQMNSLKPEDTAVYYCAAKPYGYRHYWGYDYWGQGTQVTVSS	high polyreactivity
QVQLVESGGGLVQAGGSLRLSCAASGRIFGRYAMGWYRQAPGKERELVAAITSGGRTSYADSVKGRFTISRDNAKNTVYLQMNSLKPEDTAVYYWNVVSRNSIRFDYWGQGTQVTVSS	high polyreactivity
QVQLVESGGGLVQAGGSLRLSCAASGRIFGRYAMGWYRQAPGKERELVAAITSSGGSTYYADSVKGRFTISRDNAKNTVYLQMNSLKPEDTAVYYCAADSQYKYDYWGQGTQVTVSS	high polyreactivity

Sequence	polyreactivity (PSR sort gate)
QVQLVESGGGLVQAGGSLRLSCAASGRIFGRYAMGWYRQAPGKERELVAVISSGGSTYYADSVKGRFTISRDNAKNTVYLQMNSLKPEDTAVYYCAAVNRGGYDYWGQGTQVTVSS	low polyreactivity
QVQLVESGGGLVQAGGSLRLSCAASGRIFGRYAMGWYRQAPGKERELVAVISSGGSTYYADSVKGRFTISRDNAKNTVYLQMNSLKREDTAVYYCAAVNRGGYDYWGQGTQVTVSS	low polyreactivity
QVQLVESGGGLVQAGGSLRLSCAASGRIFGRYAMGWYRQAPGKEWELVAAISNGGTTTYADSVKGRFTLSRDNAKNTVYLQMNSLKPEDTAVYYCADDWSYKIYVIQRWYGVDYWGQGTQVTVSS	low polyreactivity
QVQLVESGGGLVQAGGSLRLSCAASGRIFGRYTMGWYRQAPGKERELVAAISARGGSTYYADSVKGRFTISRDNAKNTVYLQMNSLKPEDTAVYYCNTVRVHGFPIDRIYDYWGQGTQVTVSS	high polyreactivity
QVQLVESGGGLVQAGGSLRLSCAASGRIFGSYAMGWYRQAPGKERELVAAISWRGTSTYYADSVKGRFTISRDNAKNTVYLQMNSLKPEDTAVYYCAARGLWPYDYWGQGTQVTVSS	low polyreactivity
QVQLVESGGGLVQAGGSLRLSCAASGRIFGSYAMGWYRQAPGKERELVAAITRSGGSTYYADSVKGRFTISRDNAKNTVYLQMNSLKPEDTAVYYCAAYFRFSGSAKFGYWGQGTQVTVSS	high polyreactivity
QVQLVESGGGLVQAGGSLRLSCAASGRIFGSYVMGWYRQAPGKERELVAAISIGGITKYADSVKGRFTISRDNAKNTVYLQMNSLKPEDTAVYYCAARLVRRYDYDYWGQGTQVTVSS	high polyreactivity
QVQLVESGGGLVQAGGSLRLSCAASGRIFGSYVMGWYRQAPGKERELVAAITDGGTTFYADSVKGRFTISRDNAKNTVYLPMNSLKPEDTAVYYCAARQAGYSGRKLYYWGQGTQVTVSS	low polyreactivity
QVQLVESGGGLVQAGGSLRLSCAASGRIFGTNAMGWYRPAPGKERELVADITSGGSTNYADSVKGRFTISRDNAKNTVYLQMNSLKPEDTAVYYCAAVLYSRLYWYRLDYWGQGTQVTVSS	low polyreactivity
QVQLVESGGGLVQAGGSLRLSCAASGRIFGTNAMGWYRQAPGKERELVAAINGSDSSTYYADSVKGRFTISRDNAKNTVYLQMNSLKPEDTAVYYCAADWDFFQQGANGAPYDYWGQGTQVTVSS	low polyreactivity
QVQLVESGGGLVQAGGSLRLSCAASGRIFGTNARVWYRQAPGKERELVADITSGGSTNYADSVKGRFTISRDNAKNTVYLQMNSLKPEDTAVYYCAADVIGDLRWYRDEYWGQGTQVTVSS	low polyreactivity
QVQLVESGGGLVQAGGSLRLSCAASGRIFGTYAMGWYRQAPGKERELFAAITLSDGSTYYADSVKGRFTISRDNAKNTVYLEMNTLKPEDTAVYYCAAVVDRFHPGLYEYWGQGTQVTVSS	low polyreactivity
QVQLVESGGGLVQAGGSLRLSCAASGRIFGTYAMGWYRQAPGKERELVAAISFRGGSTYYADTVNGRFTISRDNAKNTVYLQMNCLKPEDTAVYYCNARKRYSTDPGDYWGQGTQVTVSS	high polyreactivity
QVQLVESGGGLVQAGGSLRLSCAASGRIFGTYAMGWYRQAPGKERELVAAITSSGGRTYYADSVKGRFTISRDNAKNTVYLQMNRLKPEDTAVYYCAAYPWYRMWGQGTQVTVSS	high polyreactivity
QVQLVESGGGLVQAGGSLRLSCAASGRIFGTYAMGWYRQAPGKERELVDAISSSGTSTYYADSVKGRFTISRDNAKTTVYLQMNSLPPEDTAVYYCAVEAIDYAYAYYFRLGYDYWGQGTQVTVSS	low polyreactivity
QVQLVESGGGLVQAGGSLRLSCAASGRIFGVNAMGGDRQAPGKERELVAVISSGGSTYYADSVKGRFTISRDNAKNTVYLQMNSLKPEDTAVYYCAAGYLPDYDYWGQGTQVTVSS	low polyreactivity
QVQLVESGGGLVQAGGSLRLSCAASGRIFGVNAMGWYRQAPGKERELVAAINFSGGGTYYADSVKGRFTISRDNAKNTVYLQMTSLKPEDTAVYYCAADGPDYKWYYELDYWGQGTQVTVSS	low polyreactivity
QVQLVESGGGLVQAGGSLRLSCAASGRIFGVNAMGWYRQAPGKERELVADISSGGSTYYADSVKGRFTISRDNAKNTVYLQMNSLKPEDTAVYYCAKAPRGRGLYDYWGQGTQVTVSS	low polyreactivity
QVQLVESGGGLVQAGGSLRLSCAASGRIFGVYAMGWYRQAPGKERELVAAIDRRGGRTYYADSVKGRFTISRDNAKNTVYLQMNSLKPEDTAVYYCATARYRAEMGYWGQGTQVTVSS	high polyreactivity
QVQLVESGGGLVQAGGSLRLSCAASGRIFGVYAMGWYRQAPGKERELVAAIDRRGGTTYYADSVKGRFTISRDNAKNTVYLQMNSLKPEDTAVYYCAARSYPFIATYGYWGQGTQVTVSS	high polyreactivity
